Measurements reported in publication PMC7950113.

The substances below were run against SEL1L adaptor subunit of ERAD E3 ubiquitin ligase [human (endogenous in HEK293 cells)] (assay: Co-AP mass spectrometry with TMT quantification). Settings: TMT intensities of interactors normalized to Tg intensities, read off a plot.

Q: “FLAG-tagged thyroglobulin, WT mutant A2234D [human] / SEL1L adaptor subunit of ERAD E3 ubiquitin ligase [human (endogenous in HEK293 cells)] chain 1 A2215D” was tested. Which screen value did it give?
A: 0.57 log2

Q: “FLAG-tagged thyroglobulin, WT mutant C1264R [human] / SEL1L adaptor subunit of ERAD E3 ubiquitin ligase [human (endogenous in HEK293 cells)] chain 1 C1245R” was tested. Which screen value did it give?
A: 0.43 log2

Q: “FLAG-tagged thyroglobulin, WT mutant G2341R [human] / SEL1L adaptor subunit of ERAD E3 ubiquitin ligase [human (endogenous in HEK293 cells)] chain 1 G2322R” was tested. Which screen value did it give?
A: 0.44 log2

Q: For “FLAG-tagged thyroglobulin, WT mutant L2284P [human] / SEL1L adaptor subunit of ERAD E3 ubiquitin ligase [human (endogenous in HEK293 cells)] chain 1 L2265P”, which screen value is on record?
A: 0.49 log2

What follows are substances tested against calreticulin [human (endogenous in HEK293 cells)] (assay: Co-AP mass spectrometry with TMT quantification). Settings: TMT intensities of interactors normalized to Tg intensities, read off a plot.

Q: Which screen value does the source give for “FLAG-tagged thyroglobulin, WT mutant A2234D [human] / calreticulin [human (endogenous in HEK293 cells)] chain 1 A2215D” here?
A: 0.07 log2

Each substance was assayed against protein disulfide isomerase family A member 3 [human (endogenous in HEK293 cells)] (assay: Co-AP mass spectrometry with TMT quantification). Settings: TMT intensities of interactors normalized to Tg intensities, read off a plot.

Q: With “FLAG-tagged thyroglobulin, WT mutant A2234D [human] / protein disulfide isomerase family A member 3 [human (endogenous in HEK293 cells)] chain 1 A2215D” as the substance, how does the screen value read?
A: 0.16 log2

Q: How did the screen value turn out when “FLAG-tagged thyroglobulin, WT mutant C1264R [human] / protein disulfide isomerase family A member 3 [human (endogenous in HEK293 cells)] chain 1 C1245R” was run?
A: 0.35 log2

Q: “FLAG-tagged thyroglobulin, WT mutant G2341R [human] / protein disulfide isomerase family A member 3 [human (endogenous in HEK293 cells)] chain 1 G2322R” was tested. Which screen value did it give?
A: 0.55 log2

Q: How did the screen value turn out when “FLAG-tagged thyroglobulin, WT mutant L2284P [human] / protein disulfide isomerase family A member 3 [human (endogenous in HEK293 cells)] chain 1 L2265P” was run?
A: 0.6 log2

The substances below were run against calnexin [human (endogenous in HEK293 cells)] (assay: Co-AP mass spectrometry with TMT quantification). Settings: TMT intensities of interactors normalized to Tg intensities, read off a plot.

Q: How did the screen value turn out when “FLAG-tagged thyroglobulin, WT mutant A2234D [human] / calnexin [human (endogenous in HEK293 cells)] chain 1 A2215D” was run?
A: -0.1 log2

Q: Which screen value does the source give for “FLAG-tagged thyroglobulin, WT mutant C1264R [human] / calnexin [human (endogenous in HEK293 cells)] chain 1 C1245R” here?
A: -0.24 log2

Q: With “FLAG-tagged thyroglobulin, WT mutant G2341R [human] / calnexin [human (endogenous in HEK293 cells)] chain 1 G2322R” as the substance, how does the screen value read?
A: 0.06 log2

Q: “FLAG-tagged thyroglobulin, WT mutant L2284P [human] / calnexin [human (endogenous in HEK293 cells)] chain 1 L2265P” was tested. Which screen value did it give?
A: 0.13 log2

The substances below were run against glucosidase II alpha subunit [human (endogenous in HEK293 cells)] (assay: Co-AP mass spectrometry with TMT quantification). Settings: TMT intensities of interactors normalized to Tg intensities, read off a plot.

Q: For “FLAG-tagged thyroglobulin, WT mutant A2234D [human] / glucosidase II alpha subunit [human (endogenous in HEK293 cells)] chain 1 A2215D”, which screen value is on record?
A: 0.2 log2

Q: For “FLAG-tagged thyroglobulin, WT mutant C1264R [human] / glucosidase II alpha subunit [human (endogenous in HEK293 cells)] chain 1 C1245R”, which screen value is on record?
A: 0.16 log2

Q: With “FLAG-tagged thyroglobulin, WT mutant G2341R [human] / glucosidase II alpha subunit [human (endogenous in HEK293 cells)] chain 1 G2322R” as the substance, how does the screen value read?
A: 0.36 log2

Q: How did the screen value turn out when “FLAG-tagged thyroglobulin, WT mutant L2284P [human] / glucosidase II alpha subunit [human (endogenous in HEK293 cells)] chain 1 L2265P” was run?
A: 0.26 log2

These substances were tested against RAD-dependent oxidoreductase domain containing 2 [human (endogenous in HEK293 cells)] (assay: Co-AP mass spectrometry with TMT quantification). Settings: TMT intensities of interactors normalized to Tg intensities, read off a plot.

Q: For “FLAG-tagged thyroglobulin, WT mutant A2234D [human] / RAD-dependent oxidoreductase domain containing 2 [human (endogenous in HEK293 cells)] chain 1 A2215D”, which screen value is on record?
A: 0.67 log2

Q: How did the screen value turn out when “FLAG-tagged thyroglobulin, WT mutant C1264R [human] / RAD-dependent oxidoreductase domain containing 2 [human (endogenous in HEK293 cells)] chain 1 C1245R” was run?
A: 0.42 log2

Q: “FLAG-tagged thyroglobulin, WT mutant G2341R [human] / RAD-dependent oxidoreductase domain containing 2 [human (endogenous in HEK293 cells)] chain 1 G2322R” was tested. Which screen value did it give?
A: 0.45 log2

Q: Which screen value does the source give for “FLAG-tagged thyroglobulin, WT mutant L2284P [human] / RAD-dependent oxidoreductase domain containing 2 [human (endogenous in HEK293 cells)] chain 1 L2265P” here?
A: 0.58 log2

The substances below were run against UDP-glucose glycoprotein glucosyltansferase 1 [human (endogenous in HEK293 cells)] (assay: Co-AP mass spectrometry with TMT quantification). Settings: TMT intensities of interactors normalized to Tg intensities, read off a plot.

Q: For “FLAG-tagged thyroglobulin, WT mutant A2234D [human] / UDP-glucose glycoprotein glucosyltansferase 1 [human (endogenous in HEK293 cells)] chain 1 A2215D”, which screen value is on record?
A: 0.38 log2

Q: “FLAG-tagged thyroglobulin, WT mutant C1264R [human] / UDP-glucose glycoprotein glucosyltansferase 1 [human (endogenous in HEK293 cells)] chain 1 C1245R” was tested. Which screen value did it give?
A: 0.25 log2

Q: With “FLAG-tagged thyroglobulin, WT mutant G2341R [human] / UDP-glucose glycoprotein glucosyltansferase 1 [human (endogenous in HEK293 cells)] chain 1 G2322R” as the substance, how does the screen value read?
A: 0.64 log2

Q: With “FLAG-tagged thyroglobulin, WT mutant L2284P [human] / UDP-glucose glycoprotein glucosyltansferase 1 [human (endogenous in HEK293 cells)] chain 1 L2265P” as the substance, how does the screen value read?
A: 0.58 log2

The substances below were run against ER degradation enhancing alpha-mannosidase-like 3 [human (endogenous in HEK293 cells)] (assay: Co-AP mass spectrometry with TMT quantification). Settings: TMT intensities of interactors normalized to Tg intensities, read off a plot.

Q: With “FLAG-tagged thyroglobulin, WT mutant A2234D [human] / ER degradation enhancing alpha-mannosidase-like 3 [human (endogenous in HEK293 cells)] chain 1 A2215D” as the substance, how does the screen value read?
A: 0.2 log2

Q: With “FLAG-tagged thyroglobulin, WT mutant C1264R [human] / ER degradation enhancing alpha-mannosidase-like 3 [human (endogenous in HEK293 cells)] chain 1 C1245R” as the substance, how does the screen value read?
A: 0.07 log2

Q: How did the screen value turn out when “FLAG-tagged thyroglobulin, WT mutant G2341R [human] / ER degradation enhancing alpha-mannosidase-like 3 [human (endogenous in HEK293 cells)] chain 1 G2322R” was run?
A: 0.09 log2

Q: With “FLAG-tagged thyroglobulin, WT mutant L2284P [human] / ER degradation enhancing alpha-mannosidase-like 3 [human (endogenous in HEK293 cells)] chain 1 L2265P” as the substance, how does the screen value read?
A: 0.2 log2

These substances were tested against oligosaccharyl transferase complex catalytic subunit B [human (endogenous in HEK293 cells)] (assay: Co-AP mass spectrometry with TMT quantification). Settings: TMT intensities of interactors normalized to Tg intensities, read off a plot.

Q: “FLAG-tagged thyroglobulin, WT mutant A2234D [human] / oligosaccharyl transferase complex catalytic subunit B [human (endogenous in HEK293 cells)] chain 1 A2215D” was tested. Which screen value did it give?
A: -0.11 log2

Q: “FLAG-tagged thyroglobulin, WT mutant C1264R [human] / oligosaccharyl transferase complex catalytic subunit B [human (endogenous in HEK293 cells)] chain 1 C1245R” was tested. Which screen value did it give?
A: -0.21 log2

Q: “FLAG-tagged thyroglobulin, WT mutant G2341R [human] / oligosaccharyl transferase complex catalytic subunit B [human (endogenous in HEK293 cells)] chain 1 G2322R” was tested. Which screen value did it give?
A: 0.26 log2

Q: How did the screen value turn out when “FLAG-tagged thyroglobulin, WT mutant L2284P [human] / oligosaccharyl transferase complex catalytic subunit B [human (endogenous in HEK293 cells)] chain 1 L2265P” was run?
A: 0.07 log2

What follows are substances tested against OS9 endoplasmic reticulum lectin [human (endogenous in HEK293 cells)] (assay: Co-AP mass spectrometry with TMT quantification). Settings: TMT intensities of interactors normalized to Tg intensities, read off a plot.

Q: Which screen value does the source give for “FLAG-tagged thyroglobulin, WT mutant A2234D [human] / OS9 endoplasmic reticulum lectin [human (endogenous in HEK293 cells)] chain 1 A2215D” here?
A: 0.83 log2

Q: Which screen value does the source give for “FLAG-tagged thyroglobulin, WT mutant C1264R [human] / OS9 endoplasmic reticulum lectin [human (endogenous in HEK293 cells)] chain 1 C1245R” here?
A: 0.39 log2

Q: Which screen value does the source give for “FLAG-tagged thyroglobulin, WT mutant G2341R [human] / OS9 endoplasmic reticulum lectin [human (endogenous in HEK293 cells)] chain 1 G2322R” here?
A: 0.73 log2

Q: For “FLAG-tagged thyroglobulin, WT mutant L2284P [human] / OS9 endoplasmic reticulum lectin [human (endogenous in HEK293 cells)] chain 1 L2265P”, which screen value is on record?
A: 0.57 log2
